In the DeepSol protein solubility set:

Assay: soluble on expression in E. coli; label from the status in PepcDB or PDB records

Row | Sequence | soluble on expression in E. coli
1 | MTKPIIGITANQRLNMALDNLPWSYAPTGFVQAVTQSGGLPLLLPIGDEAAAKTYVSMVDKIILIGGQNVDPKYYQEEKAAFDDDFSPERDTFELAIIKEAITLKKPILGICRGTQLMNVALGGNLNQHIDSHWQEAPSDFLSHEMIIEPDSILYPIYGHKTLINSFHRQSLKTVAKDLKVIARDPRDGTIEAVISTNDAIPFLGVQWHPELLQGVRDEDLQLFRLFVNDF | not soluble
2 | MTKQLVLFCDFDGTITENDNIIAIMKQFAPPEWEALKDDILAERISVQEGVGKMFSLLPSSLKGEIIDFLRRTTRLRAGFREFVAFTKERGIPLYIVSGGIDFFVYPLLEGLIEPERIFCNGSDFSGETIRITWPHACDGECQNGCGCCKPSLLRKLARPDGYHVVIGDSITDLAVAKQADYVMARDFLLQKCQELGLPHAPFATFFDVIDALQRMEVIV | soluble
3 | MTKQREKLIEVKNVKQHFDVSGGVVKAVNDISFDIYRGETFGLVGESGCGKSTTGRTIIRLYDATAGEVLFDGENVHGKKSRAELKKFNRKMQMIFQDPYASLNPRMTVGDIIAEGIDIHGLAKNKKERMDRVHELLNTVGLNKEHANRFPHEFSGGQRQRIGIARALAVEPEFIIADEPISALDVSIQAQVVNLLKKLQKEKGLTYLFIAHDLSMVKYISDRIGVMYRGQIVELTTSDELYANPIHPYTKSLLSAIPLPDPDYERNRKRIVYDPSQHNYGSEEPTMREIRPGHFVLCSEAEYKKYKEIYQ | not soluble
4 | MTKQVKIYHNPRCSKSRETLNLLKENGVEPEVVLYLETPADAATLRDLLKILGMNSARELMRQKEDLYKELNLADSSLSEEALIQAMVDNPKLMERPIVVANGKARIGRPPEQVLEIVG | not soluble
5 | MTKTEGKTASAAVKDILLSNPDGLREVIRTVMQEVLEAEMDEALGAAKGERTPERLGYRSGHYGRTLITRVGKLELRVPQDRSGHFSTELFERYQRSERALVATLAEMYVQGVSTRKVKAITEELCGHAFSASSISAINKRLDESLKAFAERSLEEPFAYLILDARYEKVREAGVVMSQAVLIAVGIDWDGRRQILSVEMAGRESRSAWKDFLVRLKGRGLKGVELVVSDDHAGLVAAIGEVIPEAAWQRCYVHFLRNALDHLPRKHGDDCLQELRWLYDRRDLDEAKADLAAWLGKWSVRYPRLTSWVEETIEQTLTFFRLPRQHHKHLKSTNMLERLNEEIRRRTYVVRIFPNTESCLRLVRALAVETHENWMEANRYINMDDLREHKKLALRQAA | not soluble
6 | MTKVHVVLRKEDIDEMALADRKVAVVFDVLLATSSITAVLAAGARSVIPVRDAEEAKEIALRLPEGSYELVGEYEGRTIAGFHPPAPLFLQTVCPGKTVVLSTTNGTVAIRRAQPARAVYAASLLNSPAVSEHICRLHQEETIIVICSGSSGRFCLEDFYGAGYFVHCLIEQGINAAELSDSATAAWFFYRQYSDEGKAKEVLSASRVGRWMTAYGLEKEIDYINRHGSLSAVPKLELGPFGLELRNMASTKVAKEGISP | soluble
7 | MTKVSIIVPVYNTKNYVPRLLTSIEKQTYTNWELILVDDHSNDGTYELLLEFKDRYPNKVEVLKTPKPRSGPMIGKNMGIEVSSGKFLAFVDSDDWWSETFLKDTVSNIKSFGGVSTEYYDVFEDSDKKVHVKASKHGVVSWEDVLKLKARFGNGNSLLRRKIVENYGIRFPEHLWYSEDIYFYTQYLSVIDRIYVVPSPDFYHLVRGASMVRSDKIKQESKIEQTIRVYEEVCTRIQEISKVSDEVCKLLKSYQMPYSIMTYITSVSDSLGRAEARKLFWKYLDYLKGYRLTRSHQSYLTLLWILDLFIPIRGILRRLIGLEHHHHHH | soluble
8 | MTLDECIRLAWKQNPSVRNSVIDIKEARADYMAAVGAFLPRAAVNAETGKRFGRSIDPDTNGYTNETFEEGTVGLDMTLSLFEGFSRIHQVRFRKMNKERSEWALKNRQNELAYQVTDAYYKLILERKLLNLALEQSRLSERYLKQTEAFVELGLKSASDLQEVKARREGDIYRYKSRENTCRLALLHLEQLMNFQPGDTLVIQDTIVEANQLPLLSVPSTETLYAQSLEILPVMRMIDLKRKAARKEYAMAGGTFSPSVYARFTVGSNFYNTVFSARQLRDNIGKYVGIGISFPLLSGLERLTHQRKQKLNLYRLKNEEELEKQQLYTDIEQTLLSLHAGFSEHQQALQQLEAEALVLKESERKWEEGLISVFQLMEARNRFISAKAELVRVRLQVEMMRKLEKYYREGTFL | not soluble
9 | MTLFDRKTFDRVLGEWPGVRFVDQWDSHVAKVGDKVFAVLGEREDWRLVVKCSEESFEILTSLEGIAQAPYFAKRKWISIGDHSPLEQEELEHYVRRSYELVAAGLTKKLRGELGIVIDNAPRL | soluble
10 | MTLKGRIHSFESFGTLDGPGIRFVVFMQGCPLRCIYCHNRDTWDVNAGSEYTPRQVIDEMMKYIDYIKVSGGGITVTGGEPVLQADFVAEVFRLAKEQGVHTALDTNGFADIEKVERLIKYTDLVLLDIKHAREDKHKIITGVSNEKIKRFALYLSDQGVPIWIRYVLVPGYTDDEDDLKMAADFIKKLKTVEKIEVLPYHNMGAYKWEKLGQKYMLEGVKGPSAQEVEKAKRILSGK | soluble
11 | MTLKMGRVKWFNQSEGYGFISPHDGGSDVYVNKTAIANTKNKSLNEGQDVEFSTYRSIHGPSAADVIAF | not soluble
12 | MTLLRTTLLSSLLATVVLGASAAPRTEVIPLNYRTADDVMAVAQSVIGSEGKVTAYGNQLIVNAEPAKIRELQSVLQQIDSRPHRLLITVDTSENLQQDSRGYSVDGSASAGNIEIQSGRGEVNGKDRVRIIRRSTDSRSGGSQQVQATEGYPALIQVGQSVPITSTATGPYGQIYSQTEYRNVNRGFYVTATLTGNLVHVTISSSNDRLSQSHPGVIDTQSTDTRVSGKLGEWITLGGVSEQNQADQRGFVRRYSTQGRDDTSLRLKVETLDLEHHHHHH | not soluble
13 | MTLMVPFKQVDVFTEKPFMGNPVAVINFLEIDENEVSQEELQAIANWTNLSETTFLFKPSDKKYDYKLRIFTPRSELPFAGHPTIGSCKAFLEFTKNTTATSLVQECKIGAVPITINEGLISFKAPMADYESISSEMIADYEKAIGLKFIKPPALLHTGPEWIVALVEDAETCFNANPNFAMLAHQTKQNDHVGIILAGPKKEAAIKNSYEMRAFAPVINVYEDPVCGSGSVALARYLQEVYKFEKTTDITISEGGRLKRNGLMLASIKKEADNSTSYYIAGHATTVIDGKIKVHHHHHH | soluble
14 | MTLNLSVDEVLTTTRSVRKRLDFDKPVPRDVLMECLELALQAPTGSNSQGWQWVFVEDAAKKKAIADVYLANARGYLSGPAPEYPDGDTRGERMGRVRDSATYLAEHMHRAPVLLIPCLKGREDESAVGGVSFWASLFPAVWSFCLALRSRGLGSCWTTLHLLDNGEHKVADVLGIPYDEYSQGGLLPIAYTQGIDFRPAKRLPAESVTHWNGW | soluble
15 | MTLQQEIIQALGAKPHINPEEEIRRSVDFLKAYLKTYPFLKSLVLGISGGQDSTLAGKLSQMAIAELREETGDNALQFIAVRLPYGVQADEQDCQDAIAFIQPDRVLTVNIKGAVLASEQALREAGIELSDFVRGNEKARERMKAQYSIAGMTHGVVVGTDHAAEAITGFFTKYGDGGTDINPLHRLNKRQGKQLLAALGCPEHLYKKVPTADLEDDRPSLPDEAALGVTYDNIDDYLEGKTLDPAIAKTIEGWYVKTEHKRRLPITVFDDFWKR | soluble
16 | MTLSFRVNPEYAAMSEIVPGLFICGVSALSKDEMKKHKITHIINATTEVPNLRSLGDIQRTKLWLEDTPQTYIYPHLELQSDQIQALIADGGKVLVHCVAGVSRSASICLAFLLKYRCRNLREAYHLMKSKRSMVRPNLGFWRQLIAYEQNVKENAGSVRLVRDEAQPEQLLPDVYLNIAIPARPASPEQDPNMIPDEPRERRNSGFKSKFRPVLEPVMEMAEAVC | not soluble
17 | MTMKEKKLKIDISGVDPICNKSKGDDFYDVVNRQLSRRSFLKGGLGVAVSSFMLSPLMAGCTSSKGTARSSAGLGFQAIAGNRTDVVDVPVGYRAQPFLPWGTPLVPGAGEFKTDASNSALDQARQVGSHHDGMHFFPIDVKEGGASSKEGLLVMNHEYVDPQILHASFSPNAPRPQQEVLKEMMAHGVSVAHIIRKPDGEWQLVEGSPYNRRITASTPMQMSGPVAGHDKLVTRFSPDGTKTRGTINNCSHGHTPWGTYLTCEENWAGCFMNDDDTHPREHERYGVNRENSRYYWETATPGLDETLRFNASSTGSTAADDYRNEPNHFGWIVEIDPFNAKSTPVKRSMLGRFAHEGIVFAPAVEGEPLVAYSGDDSRFEYIYKFVSAKPYYKATASGELLNEGTLYVAQFNDDGTGRWLPLDIENSEFQAKASEAGVGFHSQADVLLNTRLAADVMGATKMDRPEWGAVHPTTKEVYFSLTNNTRRTEVQTNAVNPRAENAYGHIVRWSEDNQQSAESFHWDIFLMGGEAGTRTPNAEGKDLTLTSNNQFACPDGLWFDHRGTLWIQTDMSGELLSEGSFGNNGMYAANPESGELKRFLVGPVDCEITGVVTTPDGKTMFVNVQHPGDRLAPGKFSLEHHHHHH | soluble
18 | MTMKEVEITAESLAKLTPAKQPNDTTTRVNSLSYGLKGDHMIMSTDDDSMFLYDMNTGLRSRSVNSKKYGCSHVKFASDSMCALHGSTKVDNTIRYLSLTDNKYIRYFQGHDKLVTGINVSPMDDMFLSVAEDKTIRLWDLKTHNCIGLMNLSATPIATFDPEGLLFAAGLDNNIIKLYDLRSFDKGPFSSFGPLENEDNVEWTAMRFSPCGKYIMICTNSSQLLLVDAFTGLIKFTLEEHQNAQKIPLMASFTPESSHIMVGSSDGYIYFYDVETGEIALKTLAPNNQTCHIAEFSPQHFVAATADTKLTLWCASDELKAQAQQS | not soluble
19 | MTMVQPSGGGASGRGSSSGLADVIDTILDKGLVIDAFVRVSVVGIEILTIDARIVVASVDTYLRFAEATNRLDLTQTGGKGLPEVLQDTTQGVSKSKTKGIAQGALETAGEKLRDIIGEPEEEEEPAPRRRRRREEE | not soluble
20 | MTNAGTTDLSWLPSDADEQLALGFKIVTNAYKTRVTSQEAEIRSLKGQLTEKQEQLSSIQKKYSNLEVQLIESTQRGNQLADENKQLITTIKKLNRDIDRLENLKKAVLNSIQEEHDVEDAHKYYSADDLLQTTAPRTMLEMNGNEDSCQSIINKIVNSDTHNIINGSFNSPYIGNVPLGEKNTDGRAFFRNARSRLSYEQFNQFLSNIKKLNNHQQKREETLKKAQAIFGEANLDLYEEFKVLISKHS | not soluble
21 | MTNESEVGVKKAAELLRQGATMLEEACPICKMPLFKLKNGDVVCPVHGKVYIVKSDDEEKIVKRNLQLDEIESILIDGLYLSAKKMKEDPLDSERIIQIIRYLDALERLRKIKINSSE | not soluble
22 | MTNISIPGNWQTCDVEAMDGDFDDNMLQFLGSFEEVLPEGVEVETKKGMKKKNKPKKVENTERPEEDAKCVEERRLAKKLRRKEQMAANRKQKKERLAKRKQKEAESSAKKSENATETTTEKPKEQKKRKGGENGDTGKPKKSKKEASKKTDISAWKQFYFLPNEVLEAIEQMGFSEPTEIQSAVLPAAVRDRQDVLGAAETGSGKTLAFGIPLVARLLESSDDSQETESTEVRGPRALIVAPTRELVIQIMKHINALISTTQLIATSIVGGLAQVKQERIISQQRPDIVVATPGRLWAMMQEAETGEFLAEWKDLKCLVVDETDRMVEEGYFAELTHILNKIHEESEKEKLQTLVFSATLTFAKAQDVAEEEKKKAKELSSQQKIQRLIKLTGLRENKHKVIDLTRQMGTAGCLVEARINCGNLLEKDTSLVYLLTRYPGRTIVFVNSIDAARRLYSVLKSVNIDPMILHAKMIQKQRLKNLEKFSESKNAVLLATDVAARGLDIQGIDHVIHYQVPKKVEIYIHRSGRTARASHRGLTVVLVDPPSRQFYMKLCKGLNRMQDLNVFPIDFEPLMNAIKKRVRLASEIDSLGFRCKKIKMSESWFEKAARAADLDYDETRHREMDGLNLEVDTMVQKSRQLQAQLRTELSLPLPRVDGSDSMKTKYITPEIVARLRSVGDNAIDVLNQKIDETKEWKRKSRKATREDEMNSMKKSLKSSQKNKERLAEKKKKEKAAKVTKLSETD | not soluble
